Assay results published in patent EP4721730A1, “PHARMACEUTICAL COMPOSITION COMPRISING SUSTAINED-RELEASE MICROSPHERE COMPRISING CAGRILINTIDE OR PHARMACEUTICALLY ACCEPTABLE SALT THEREOF AND PREPARATION METHOD THEREFOR” (G2GBIO, Inc., priority 2023, dated 2024).

Assay: Pharmacokinetics of a single-dose subcutaneous administration using SD rats (concentration of cagrilintide in blood)
Type: in vivo
Conditions: s.c. 1.2 mg/head
Method: In order to evaluate a potential of the microsphere according to the present invention as a sustained-release therapeutic agent, the concentration of the cagrilintide in rat blood was measured by the following method.
Specifically, the microsphere was measured so that a dosage of the cagrilintide becomes 1.2 mg/head (API raw material solution, Example 5-6) or 3.6 mg/head (Comparative Examples 1 to 2, Examples 1-1 to 1-3, Example 5-1), dispersed in 0.5 mL of a suspension, and then subcutaneously injected into SD rats. 0.25 to 0.5 mL of blood was collected at prescheduled times and the concentration of the cagrilintide in blood was measured using HPLC.

Work on “cagrilintide [API raw material solution]” yielded a cumulative blood concentration (day 0, cagrilintide) of 0.0%, a cumulative blood concentration (day 0.042, cagrilintide) of 0.2% and a cumulative blood concentration (day 0.250, cagrilintide) of 4.5%. It also gave a cumulative blood concentration (day 1, cagrilintide) of 35.2%, a cumulative blood concentration (day 4, cagrilintide) of 91.1% and a cumulative blood concentration (day 7, cagrilintide) of 100.0%.
